The text below walks through data of US20230250168A1 (MABWELL SHANGHAI BIOSCIENCE, published 2023).

In experiment [1] the target is T1, human CLDN18.2 expressed on cell surfaces (human, UniProt P56856-2 1-261).
T1 construct: whole, on cells; also called CHOK1 cells stably expressing human CLDN18.2
Nature of the experiment: FACS of hybridoma supernatants on CHOK1 cells. The protocol:
Balb/c mice were immunized with CHOK1 cells stably expressing human CLDN18.2 protein on cell surfaces. One month later, sera from the mice were analyzed by flow cytometry (FACS), and spleens were taken from mice having high antibody titers in sera. The spleen cells isolated by standard methods were fused with myeloma cells P3X63Ag8.653 using PEG or electrofusion methods. The fused hybridoma cells were seeded in 384 well plates, and after 10-14 days of culture, supernatants obtained were analyzed by FACS for antibody secretion by the hybridoma cells. Several clones were obtained that were able to bind to CHOK1 cells stably expressing human CLDN18.2 protein on cell surfaces and were not able to bind to CHOK1 cells stably expressing human CLDN18.1 protein on cell surfaces. Single cells of the obtained clones were obtained by Limiting Dilution, and each of the monoclonal hybridoma cell clones obtained after being diluted three times secreted only one antibody.

Experiment [2] has as its target T2, antigen human CLDN18.2, His-tagged (human, UniProt P56856-2 1-261, limits assumed).
T2 construct: Recombinant antigen used in the Fortebio assay (His-tagged, captured on NTA probe); also called His-tagged antigen; not shown: His tag
Briefly: SPR (BIAcore), antibody captured by anti-human Fc, antigen as analyte. The protocol:
Referring to the instructions provided in the Human Antibody Capture Kit (cat No. BR-1008-39, Lot 10261753) from GE Healthcare, the analytical channel and the control sample channel on a CM5 sensor chip were first saturated and coupled with the maximum amount of anti-human Fc antibody, then buffers containing anti-human CLDN18.2 chimeric antibodies, humanized antibodies or a control antibody IMAB362 at 7.5 μg/ml were allowed to flow through the analytical channel and uniformly distribute. Finally, antigen samples diluted in gradient (the initial concentration was 20 nM and diluted by 1:3 to get 8 concentrations, and the concentration 0.741 nM was set to be repeated) were allowed to flow through both the analytical channel and the sample channel, and the photoreactions upon the binding of antibody to antigen were measured. Subsequently, the association constant Kon and dissociation constant Koff and affinity constant KD of each antibody were finally obtained by instrument software fitting analysis.

Experiment [3] deals with T1, human CLDN18.2 expressed on cell …. Nature of the experiment: cell-based or functional assay.
For experiment [4] the target is unchanged. Briefly: cell-based or functional assay. The source holds these as a separate data set.
For experiment [5] the target is unchanged. Nature of the experiment: flow cytometry on CHOK1 cells expressing human CLDN18.2, goat anti-human IgG secondary, normalised MFI. The protocol: The chimeric anti-human CLDN18.2 antibodies were diluted 2-fold in gradient from an initial concentration of 100 nM and solutions of each antibody of 16 concentrations were obtained. 10 μl of the solutions of each antibody of each concentration was added to a 384-well plate. CHOK1 cells expressing CLDN18.2 on the cell surface were collected by centrifugation for 5 min at 100 g at room temperature, and the cells were washed with PBS containing 0.5% BSA once and then were centrifuged for 5 min at 100 g at room temperature. The cells were resuspended at a density of about 2×10⁶ cells/ml, and 10 μl was added to each well of the 384-well plate to which the antibody had been added. After incubation for 1 hour at 4° C., fluorescently labeled secondary goat anti-human IgG antibody was added. After continued incubation for 1 hour at 4° C., the mean fluorescence readings of the cell populations were analyzed by a flow cytometer.

In experiment [6] the target is T2, antigen human CLDN18.2, His-tagged. Briefly: BLI (Fortebio), His-tagged antigen on NTA probe, 100 nM antibody, 1:1 fit. How it is done: The binding kinetic parameters of the chimeric antibodies and the humanized antibodies thereof to the antigen human CLDN18.2 were analyzed by a Fortebio (BLITZ pro1.1.0.28) instrument. Before performing the assay, an NTA bioprobe was soaked in PBS for 10 min, and the probe was then placed in PBS containing 100 nM antigen for 300 s to capture the His-tagged antigen. The probe was further subjected to a binding reaction with 100 nM antibody for a binding time of 400 s, and the probe was then transferred to PBS and subjected to a dissociation reaction for 600 s. When the assay was finished, data from which the response value of a blank control had been deducted were fitted to a 1:1 Langmuir binding model using software, and then the kinetic constants for antigen-antibody binding were calculated.

Positions count from the first letter of the chain named.

B1: murine antibody 20L17 (antibody, V domains shown)
VH: DVQLVESGGGLVQPGGSRKLSCAASGFTFSSFGMHWVRQAPEKGLEWVAYISSGSSTIYYPDTVKGRFTVSRDNPKNTLFLQMTSLRSEDTAMYYCVRLGPRGNVMDHWGQGTSVTVSS
VL: DIVMTQSPSSLTVTAGEKVTMSCKSSQSLLNSGNQRNYLTWYQQKPGQPPKLLIYWASTRESGVPDRFTGSGSGTDFTLTISSVQAEDLAVYYCQNVYFYPLTFGTGTKLELR
notes: Mouse hybridoma antibody (supernatant)
For the molecule B1, the binding result in experiment [1] is “binds”.

B2: IMAB362 (antibody, human IgG1, kappa, V domains shown)
VH: QVQLQQPGAELVRPGASVKLSCKASGYTFTSYWINWVKQRPGQGLEWIGNIYPSDSYTNYNQKFKDKATLTVDKSSSTAYMQLSSPTSEDSAVYYCTRSWRGNSFDYWGQGTTLTVSS
VL: DIVMTQSPSSLTVTAGEKVTMSCKSSQSLLNSGNQKNYLTWYQQKPGQPPKLLIYWASTRESGVPDRFTGSGSGTDFTLTISSVQAEDLAVYYCQNDYSYPFTFGSGTKLEIKR
notes: Chimeric anti-CLDN18.2 antibody of Ganymed, used as control; also called control antibody IMAB362
In experiment [2], B2 showed a Kd of 136 nM, an off-rate constant (koff) of 0.201 s⁻¹ and a kon of 1.48e+06 M⁻¹ s⁻¹. In experiment [3], the “CDC EC50, BxPC3 cells stably expressing human CLDN18.2 (CCK-8)” value was determined as 52.2 nM; the “CDC EC50, CHOK1 cells stably expressing human CLDN18.2 (CCK-8)” value worked out at 30.4 nM; the “CDC EC50, NCI-N87 cells stably expressing human CLDN18.2 (CCK-8)” value amounted to 474 nM. In experiment [4], the “ADCC reporter EC50 (Jurkat NFAT-luciferase effector cells), BxPC3 target cells” value was found to be 0.106 nM; the “ADCC reporter EC50 (Jurkat NFAT-luciferase effector cells), CHOK1 target cells” value came out at 0.593 nM; the “ADCC reporter EC50 (Jurkat NFAT-luciferase effector cells), NCI-N87 target cells” value was 0.0909 nM.

B3: 43B5-xiIgG (antibody, V domains shown)
VH: DVQLQESGPDLVKPSQSLSLTCTVSGYSISGAYNWHWIRQFPGNKLEWLAYMQYSGSSNYNPSFKSRISISRDTSKNQFFLQLKSVTTEDTATYYCARMYNGNSFLYWGQGTLVTVSA
VL: B2 VL with S22N, L30F, K51R, A90S, V91L, D97S, F102L, S106A, I112L
notes: murine variable regions on human IgG1 / kappa constant regions; also called 43B5 chimeric antibody
As for B3, the “EC50 (read off the curve)” value in experiment [5] was ~1 nM.

B4: 20L17-xiIgG (antibody, V domains shown)
VH: B1 VH
VL: B2 VL with K36R, D97V, S99F, F102L, S106T, I112L, K113R
notes: murine variable regions on human IgG1 / kappa constant regions; also called 20L17 chimeric antibody
With B4, in experiment [5], the binding result is “binds”.

B5: 48G12-xiIgG (antibody, V domains shown)
VH: EVQLRQSGPELVKPGASVKMSCKASGYTFTTYIINWVKQKPGQGLEWIGYINPYNDDTRYNERVKGKATLTSDKSSSTAYMELSSLTSEDSAVYYCARFYFGNSFTYWGQGTLVTVSA
VL: DIVMTQSPSSLPVTVGERVTMTCKSSQGLFNSGNQRNYLTWYQQKPGQPPKLLIYWASTRESGVPDRFTGSGSGTDFTLTISSVQAEDLAIYYCQNNYIYPLTFGAGTKLELKR
notes: murine variable regions on human IgG1 / kappa constant regions; also called 48G12 chimeric antibody
For the molecule B5, the binding result in experiment [5] is reported as “binds”.

B6: murine antibody 48G12 (antibody, V domains shown)
VH: B5 VH
VL: DIVMTQSPSSLPVTVGERVTMTCKSSQGLFNSGNQRNYLTWYQQKPGQPPKLLIYWASTRESGVPDRFTGSGSGTDFTLTISSVQAEDLAIYYCQNNYIYPLTFGAGTKLELK
notes: as for B1
With B6, the binding result in experiment [1] is recorded as “binds”.

B7: 50C14-xiIgG (antibody, V domains shown)
VH: B5 VH with D57G, Y100H
VL: B5 VL with V15T, R18K, S32N, T69I, Y100F
notes: murine variable regions on human IgG1 / kappa constant regions; also called 50C14 chimeric antibody
As to B7, in experiment [5], the binding result is recorded as “binds”.

B8: 46J05-xiIgG (antibody, V domains shown)
VH: DVQLVESGGGLVQPGGSRKLSCAASGFTFSRFGMHWVRQAPKKGLEWVAYISSGSNTIYYADTVKGRFTISRDNPKNTLFLQTTSLRSEDTAIYYCGRLGFYGNSFDHWGQGTLVTVSA
VL: NILMTQSPSSLTVTAGEKVTMNCKSSQSLLNGGNQRNYLTWYQQKAGQPPKLLIYWASTRESGVPDRFTGGGSGTDFTLTISSVQAEDLALYYCQNSYYYPLTFGAGTKLELKR
notes: murine variable regions on human IgG1 / kappa constant regions; also called 46J05 chimeric antibody
In the case of B8, the binding result in experiment [5] is on record as “binds”.

B9: murine antibody 46J05 (antibody, V domains shown)
VH: B8 VH
VL: NILMTQSPSSLTVTAGEKVTMNCKSSQSLLNGGNQRNYLTWYQQKAGQPPKLLIYWASTRESGVPDRFTGGGSGTDFTLTISSVQAEDLALYYCQNSYYYPLTFGAGTKLELK
notes: as for B1
Turning to B9, the binding result in experiment [1] is on record as “binds”.

B10: 43L6-xiIgG (antibody, V domains shown)
VH: QVQLKESGPDLVAPSQSLSLTCSVSGFSLTSYGIHWVRQPPGKGLEWLVVIWSDGRTTYNSGLKSRLSISKDNSKSQVLLKMNSLRTDDTAIYYCVRHPAFGPHAMDYWGQGTSVTVSS
VL: DIVMTQAAPSVPVTPGESVSISCRSSKSLLNSNGNTYLYWFLQRPGQSPQLLIYRMSNLASGVPDRFSGSGSGTDFTLRISRVEAGDVGVYYCMQYLEYPVTFGAGTKLELKR
notes: murine variable regions on human IgG1 / kappa constant regions; also called 43L6 chimeric antibody
Regarding B10, the binding result in experiment [5] is “binds”.

B11: 11M23-xiIgG (antibody, V domains shown)
VH: QVQLKESGPDLVAPSQSLSITCTVSGFSLTNYGVHWVRQPPGKGLEWLVVIWSDGRINYNSALKSRLSITKDNSKRQVFLKMNSLQIDDTAIYYCVRHPAFGPHAMDYWGQGISVTVSS
VL: B10 VL with A7D, V11I, Q50H, I53L, L59P, V63A, D75E, G86E, V101P, K108R
notes: Murine variable regions on human IgG1 / kappa constant regions; also called 11M23 chimeric antibody
In experiment [6], B11 came in with a Kd of 0.293 nM, a Response of 0.184, an off-rate (koff) of 0.000107 s⁻¹ and a kon of 366000 M⁻¹ s⁻¹.

B12: murine antibody 43L6 (antibody, V domains shown)
VH: B10 VH
VL: DIVMTQAAPSVPVTPGESVSISCRSSKSLLNSNGNTYLYWFLQRPGQSPQLLIYRMSNLASGVPDRFSGSGSGTDFTLRISRVEAGDVGVYYCMQYLEYPVTFGAGTKLELK
notes: as for B1
Consider B12, for which, in experiment [1], the binding result is “binds”.

B13: 11M23-hz00 (antibody, human IgG1, V domains shown)
VH: QVQLVESGGGVVQPGRSLRLSCAASGFSLTNYGVHWVRQAPGKGLEWVAVIWSDGRINYNSALKSRFTISRDNSKNTLYLQMNSLRAEDTAVYYCARHPAFGPHAMDYWGQGTLVTVSS
VL: DIVMTQSPLSLPVTPGEPASISCRSSKSLLNSNGNTYLYWYLQKPGQSPQLLIYRMSNPASGVPDRFSGSGSGTDFTLKISRVEAEDVGVYYCMQYLEYPPTFGAGTKLEIK
notes: Humanized (direct CDR graft)
With B13, in experiment [6], the Kd came out at 1.49 nM, the Response stood at 0.164, the koff worked out at 0.000324 s⁻¹ and the kon came out at 218000 M⁻¹ s⁻¹.

B14: 11M23-hz22 (antibody, V domains shown)
VH: B13 VH with D54E, N60Q, R71K
VL: B13 VL with N31S, N33S, Y41F
In experiment [6], B14 had a Kd of 2.92 nM, a Response of 0.136, an off-rate constant (koff) of 0.00195 s⁻¹ and an on-rate constant (kon) of 670000 M⁻¹ s⁻¹.

B15: 11M23-hz11 (antibody, V domains shown)
VH: B13 VH with R71K
VL: B13 VL with Y41F
B15: in experiment [6], the Kd amounted to 1.29 nM, the Response was found to be 0.174, the off-rate (koff) came out at 0.00046 s⁻¹ and the kon amounted to 356000 M⁻¹ s⁻¹.
